How the values were obtained:
Experiment in all cases: FRET or BRET
[1] = target: cpVenus-tagged Gβγ of the Gs BRET sensor (UniProt P62873)
[2] = target: Gβ3 with cpVenus-Gγ9 (Gβγ of the G13 BRET sensor) (UniProt P16520)
[3] = target: cpVenus-tagged Gβγ of the G15 BRET sensor (UniProt P62873)

Chain of UniProt P16520 (P16520 whole entry, chain 1 of 2): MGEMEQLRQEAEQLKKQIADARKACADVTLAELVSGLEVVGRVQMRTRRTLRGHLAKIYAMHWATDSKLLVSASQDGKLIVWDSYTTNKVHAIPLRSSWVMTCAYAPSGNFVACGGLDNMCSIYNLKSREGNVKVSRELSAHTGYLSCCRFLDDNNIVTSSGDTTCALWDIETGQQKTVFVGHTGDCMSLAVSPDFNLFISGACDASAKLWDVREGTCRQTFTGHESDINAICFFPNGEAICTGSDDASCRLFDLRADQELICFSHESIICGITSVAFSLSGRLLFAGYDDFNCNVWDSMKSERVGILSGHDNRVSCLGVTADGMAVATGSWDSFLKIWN
Chain of UniProt P16520 (O14610 whole entry, chain 2 of 2, further chain): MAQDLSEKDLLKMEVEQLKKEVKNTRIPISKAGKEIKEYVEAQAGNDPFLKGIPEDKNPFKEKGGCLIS

With “Nluc-tagged Gαs (Gs BRET sensor) (from UniProt P63092 1-394) (natural protein)” the amplitude of the BRET response (ΔBRET) on agonist activation of β2AR [1] was -10%.

“Gα13-Nluc (G13 BRET sensor) (from UniProt Q14344 1-377) (natural protein)” showed an amplitude of the BRET response (ΔBRET) on agonist activation of TBXA2R [2] of -35%.

“Nluc-tagged Gα15 (G15 BRET sensor) (from UniProt P30679 1-374) (natural protein)” gave an amplitude of the BRET response (ΔBRET) on agonist activation of TBXA2R [3] of -10%.
